Results reported in patent US20230167458A1, “FORSKOLIN-INDUCIBLE PROMOTERS AND HYPOXIA-INDUCIBLE PROMOTERS” (ASKLEPIOS BIOPHARMACEUTICAL, INC., priority 2020, published 2023).
Entries after “also recorded” stand apart in the source; their conditions may differ.

Legend:
[1] = system: Huh7 human liver cell line; test: Luciferase expression from forskolin-inducible promoters, transient transfection of PM-RQ plasmid in Huh7; type: cell-based; parameters: luciferase activity following induction / fold induction of promoter (luciferase activity): dose or concentration left out as unconfirmed
Procedure: Luciferase readouts were normalised to β-galactosidase to produce normalised relative luminometer units (RLUs). β-galactosidase containing pcDNA6 plasmid was used as internal control for transfection efficiency (Thermofisher, V22020). β-galactosidase activity was measured as per manufacturer's instructions (Mammalian βGalactosidase Assay Kit, 75707/75710, Thermo Scientific) using 25 μl of lysate. 25 μl of lysate was transferred into a microplate well and mixed with 25 μl of β-galactosidase Assay Reagent, equilibrated to room temperature. The mixture was incubated at 37° C. for 30 min and absorbance measured at 405 nm.
The forskolin-inducible promoters were initially used to drive expression of luciferase in the Huh7 human liver cell line and the C2C12 […]. The promoter constructs were used to drive expression of luciferase in the PM-RQ plasmid. The tested promoters were synthesised directly upstream of the ATG of PM-RQ plasmid.
• Huh7 cells which are a human liver cell line • DPBS: without CaCl2, without MgCl2 (Gibco, 14190-094) • DMEM (Sigma, D6546) • FBS (Sigma, F9665) • Pen-Strep (Sigma, P4333) • Promega Fugene-HD (E2311) • Forskolin (Sigma, F6886) • NKH477 (Sigma, N3290) • LARII (Dual Luciferase Reporter 1000 assay system, Promega, E1980) • 48 well plates flat bottom (353230, Corning) • Trypsin-EDTA (25200-056, Gibco) • T25 & T75 flask (353108, 353136, Corning) • 15 ml Falcon tubes (430791, Corning) • Stripettes 5 ml, 10 ml and 25 ml (4101,4051,4251, Corning)
Cells were seeded onto a 48 well plate at a density of 25,000 cells/300 μl
• On the day of transfection, DNA to be transfected was diluted to a 100 ng/μl stock solution. DNA to be transfected was the RTV-017, RTV-019 or CMV-IE promoter driving luciferase in the PM-RQ plasmid. • Per 48 well transfection, 45 ng of DNA was mixed with 4.1 μl of Optimem medium. • 0.5 μl of […] was mixed with 4 μl of Optimem medium. • These 2 solutions were mixed and incubated at room temperature for 15 minutes. • The final solution was then added to the well drop wise. • 3 hrs after transfection the inducer was added to the appropriate wells at the indicated concentration. Inducer was forskolin at […].
• 24 hrs after induction, the luciferase activity was measured as described below.
• Luciferase activity was measured using LARII (Dual Luciferase Reporter 1000 assay system, Promega, E1980) • 24 hours after induction, the media was removed from the cells • The cells were washed once in 300 μl of DPBS. • Cells were lysed using 100 μl of passive lysis buffer and incubated with rocking for 15 minutes. • The cell debris was pelleted by centrifugation of the plate at max speed in a benchtop centrifuge for 1 min • For luciferase, 10 μl sample was transferred into white 96-well plate and luminescence measured by injection of 50 μl of LARII substrate
RTV-017 and RTV-019 were transiently transfected into the human liver cell line Huh7 (FIG. 2). RTV-019 was transiently transfected into the […] C2C12 (FIG. 3). The activity of the promoters was assessed using luciferase activity. The luciferase activity was measured with and without the presence of […] forskolin.

HEK293-F = test: Luciferase time course after forskolin induction, transient transfection of suspension HEK293-F; type: cell-based, human; settings: 20 µM forskolin
Procedure: The tested promoters were synthesised directly upstream of the ATG of PM-RQ plasmid and the suspension cell lines were transiently transfected with the PM-RQ plasmid.
40 ml of cells were grown in a 250 ml vented Erlenmeyer flask (Sigma-Aldrich CLS431144) at 37° C., 20% O2, 8% CO2 with agitation at 100 rpm. Cells were seeded as described in the manufacturer's instructions (300,000 cells/ml). HEK293-F were obtained from Thermofisher, R79007.
One day before transfection, the cells were counted using a haemocytometer and split to 500,000 cells/ml.
On the day of transfection, the cells are seeded to 1,000,000 cells/ml in 500 μl of appropriate medium (Freestyle 293 expression medium, 12338002) in a 24 well plate. […] of DNA per well was then added to 10 μl of OptiMem medium (Thermofisher; 11058021) and incubated for 5 minutes at room temperature.
Concurrently, 0.625 μl of Max reagent (Thermofisher, 16447100) was made up to 10 μl by addition of OptiMem and incubated for 5 minutes at room temperature. After this incubation, both mixes were added to the same tube and incubated at room temperature for 25-30 minutes. […]
24 hours after transfection, the promoters were induced by addition of […] forskolin and luciferase activity was measured 0, 3, 5 and 24 hours after induction. Luciferase activity was measured as previously described.

[2] = system: Huh7 human liver cell line; test: Luciferase expression from promoters in pAAV vector (with ITRs) in Huh7, forskolin or NKH477 induction; parameters: fold induction with forskolin: dose or concentration left out as unconfirmed
Procedure: The forskolin-inducible promoters RTV-017, RTV-019 and FORCYB1 were then used to drive expression of luciferase in a pAAV vector in the Huh7 human liver cell line. […] This experiment was performed to investigate the effect of the Inverted Terminal Repeats (ITRs) on the activity of the promoters.
The cells were seeded, transfected and induced as described above. Luciferase expression was measured as described above. In this experiment, the cells were induced by using 20 pM forskolin or 7.2 pM of the water soluble derivative NKH477.

B1: RTV-019: synthetic forskolin-inducible promoter, SEQ ID NO: 44; 3× ATF6, 4× AP1(1) and 3× HRE1 TFBS and CMV-MP (nucleic acid)
DNA: TGACGTGCTGATGATGCGTAGCTAGTAGTTGACGTGCTGATGATGCGTAGCTAGTAGTTGACGTGCTGATGATGCGTAGCTAGTAGTTGAGTCAGATGATGCGTAGCTAGTAGTTGAGTCAGATGATGCGTAGCTAGTAGTTGAGTCAGATGATGCGTAGCTAGTAGTTGAGTCAGATGATGCGTAGCTAGTAGTCTGCACGTAGATGATGCGTAGCTAGTAGTCTGCACGTAGATGATGCGTAGCTAGTAGTCTGCACGTAGATGATGCGTAGCTAGTAGTGCAGTTAGCGTAGCTGAGGTACCGTCGACGATATCGGATCCAGGTCTATATAAGCAGAGCTCGTTTAGTGAACCGTCAGATCGCCTAGATACGCCATCCACGCTGTTTTGACCTCCATAGAAGATCGCCACC
modifications: Synp-RTV-019
notes: 3× ATF6, 4× AP1(1) and 3× HRE1 TFBS and CMV-MP
- luciferase activity without induction (background) ([1]; Huh7, before addition of forskolin): low background activity
- luciferase activity following induction ([1]; Huh7, forskolin): high activity; also recorded: much higher activity
- fold induction of promoter (luciferase activity) ([1]; Huh7 liver cells, PM-RQ plasmid, forskolin, 24 hrs after induction): 24 fold
- relative rank of promoter (fold induction/strength) (HEK293-F): strongest
- fold induction with forskolin ([2]; Huh7): 98 fold
- luciferase activity without induction (background) ([2]; Huh7): low background activity
- fold induction with NKH477 ([2]; Huh7, 7.2 pM NKH477): 86 fold
- luciferase activity following induction ([2]; Huh7, or 7.2 pM NKH477): high activity
